Biological target: PARP (Cricetulus griseus, UniProt Q9R152)
Assay: PARP inhibition in transfected CHO dhfr- cells, 3H-NAD incorporation
Settings: H2O2 0.06%; cells co-expressing LTRPC2 and PARP-1 dominant negative mutant versus LTRPC2 alone

PARP, sequence (Q9R152 2-1013): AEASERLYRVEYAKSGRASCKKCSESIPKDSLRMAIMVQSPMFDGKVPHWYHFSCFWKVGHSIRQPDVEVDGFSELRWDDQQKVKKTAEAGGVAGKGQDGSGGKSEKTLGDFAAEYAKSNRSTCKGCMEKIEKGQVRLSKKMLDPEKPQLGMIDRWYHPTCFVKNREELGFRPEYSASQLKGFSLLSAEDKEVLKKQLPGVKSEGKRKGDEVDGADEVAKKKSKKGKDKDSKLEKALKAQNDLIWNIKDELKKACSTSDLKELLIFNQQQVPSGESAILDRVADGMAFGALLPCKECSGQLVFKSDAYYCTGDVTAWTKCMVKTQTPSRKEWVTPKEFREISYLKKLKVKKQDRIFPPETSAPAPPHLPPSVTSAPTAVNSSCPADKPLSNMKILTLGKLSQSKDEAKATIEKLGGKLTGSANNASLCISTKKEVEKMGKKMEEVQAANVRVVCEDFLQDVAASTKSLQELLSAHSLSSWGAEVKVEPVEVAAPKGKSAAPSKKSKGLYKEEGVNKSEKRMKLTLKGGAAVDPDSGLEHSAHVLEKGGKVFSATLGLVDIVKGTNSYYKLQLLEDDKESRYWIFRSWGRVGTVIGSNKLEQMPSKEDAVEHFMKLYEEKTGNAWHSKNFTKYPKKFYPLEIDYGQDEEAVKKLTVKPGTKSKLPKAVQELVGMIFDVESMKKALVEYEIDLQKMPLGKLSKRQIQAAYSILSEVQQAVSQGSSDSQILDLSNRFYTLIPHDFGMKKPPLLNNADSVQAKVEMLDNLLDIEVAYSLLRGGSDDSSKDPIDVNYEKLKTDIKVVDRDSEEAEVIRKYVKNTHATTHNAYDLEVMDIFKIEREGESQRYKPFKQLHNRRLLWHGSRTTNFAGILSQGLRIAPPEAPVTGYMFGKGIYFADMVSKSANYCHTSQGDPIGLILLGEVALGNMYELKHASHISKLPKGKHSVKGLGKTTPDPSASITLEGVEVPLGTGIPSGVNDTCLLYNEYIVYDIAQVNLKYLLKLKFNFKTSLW

PARP-1 dominant negative mutant: human PARP-1 DNA binding region (positions 1 to 374), amino acid sequence SEQ ID NO:20, co-expressed in cells
3H radioactivity in comparison with the control cells: 67%
